Assay results: patent US20230357447A1 (JANUX THERAPEUTICS, published 2023)
Ends that are not written are not given here.

Columns and labels:
[1] = target: T1, Anti-CD28 scFv (VH-linker 1-VL) (biotinylated (site not stated)); assay: phage ELISA, scFv wells pre-incubated with soluble CD28 (competitor); background signal 0.072
T1 construct: biotinylated and captured on neutravidin coated plates in the phage ELISA

[2] = target: T1, Anti-CD28 scFv (VH-linker 1-VL); assay: phage ELISA, captured biotinylated scFv; background signal 0.072
[3] = target: T1, Anti-CD28 scFv (VH-linker 1-VL); assay: phage ELISA, captured biotinylated scFv; background signal 0.079
[4] = target: T1, Anti-CD28 scFv (VH-linker 1-VL); assay: phage ELISA, scFv wells pre-incubated with soluble CD28 (competitor); background signal 0.079
[5] = target: T1, Anti-CD28 scFv (VH-linker 1-VL); assay: phage ELISA, scFv wells pre-incubated with soluble CD28 (competitor); background signal 0.063
[6] = target: T1, Anti-CD28 scFv (VH-linker 1-VL); assay: phage ELISA, scFv wells pre-incubated with soluble CD28 (competitor); background signal 0.062
[7] = target: T1, Anti-CD28 scFv (VH-linker 1-VL); assay: phage ELISA, captured biotinylated scFv; background signal 0.062
[8] = target: T1, Anti-CD28 scFv (VH-linker 1-VL); assay: phage ELISA, captured biotinylated scFv; background signal 0.065
[9] = target: T1, Anti-CD28 scFv (VH-linker 1-VL); assay: phage ELISA, scFv wells pre-incubated with soluble CD28 (competitor); background signal 0.065
[10] = target: T1, Anti-CD28 scFv (VH-linker 1-VL); assay: phage ELISA, scFv wells pre-incubated with soluble CD28 (competitor); background signal 0.066
[11] = target: T1, Anti-CD28 scFv (VH-linker 1-VL); assay: phage ELISA, captured biotinylated scFv; background signal 0.066
[12] = target: T2, Ab-12, anti-PD-L1xCD28 non-masked antibody in Vh format; assay: competition ELISA: peptide titrated against 5 nM Ab-12; binding of Ab-12 to captured biotinylated CD28 antigen is read
T2 construct: also called PDL1xCD28 non-masked (Vh)

[13] = target: T1, Anti-CD28 scFv (VH-linker 1-VL); assay: phage ELISA, scFv wells pre-incubated with soluble CD28 (competitor); background signal 0.071
[14] = target: T1, Anti-CD28 scFv (VH-linker 1-VL); assay: phage ELISA, captured biotinylated scFv; background signal 0.071
[15] = target: T1, Anti-CD28 scFv (VH-linker 1-VL); assay: phage ELISA, captured biotinylated scFv; background signal 0.073
[16] = target: T1, Anti-CD28 scFv (VH-linker 1-VL); assay: phage ELISA, scFv wells pre-incubated with soluble CD28 (competitor); background signal 0.073

Binder: MDWCPRDLWYACFA [Phage-116]
- Phage binding ELISA CD28 scFv signal in presence of CD28 [1]: 0.242
- Phage binding ELISA CD28 scFv signal [2]: 2.47

B1: Phage-56 (second entry so labelled, SEQ ID NO: 255) (peptide)
peptide: MDWCPRYLWNECFY
notes: label printed as Phage-56 between Phage-65 and Phage-67, probably Phage-66
- Phage binding ELISA CD28 scFv signal [3]: 2.54
- Phage binding ELISA CD28 scFv signal in presence of CD28 [4]: 0.358

Binder: MDWCPRYLWAECFY [Phage-102]
- Phage binding ELISA CD28 scFv signal in presence of CD28 [5]: 0.354

Binder: MDWCPRDMWSVCFS [Phage-32]
- Phage binding ELISA CD28 scFv signal in presence of CD28 [6]: 0.207
- Phage binding ELISA CD28 scFv signal [7]: 2.62

Binder: MVSCPTTMWNRCFN [Phage-61]
- Phage binding ELISA CD28 scFv signal [3]: 1.33
- Phage binding ELISA CD28 scFv signal in presence of CD28 [4]: 0.072

Binder: MDWCPRDLWSLCFY [Phage-94]
- Phage binding ELISA CD28 scFv signal [8]: 2.57
- Phage binding ELISA CD28 scFv signal in presence of CD28 [9]: 0.246

Binder: MAWCPRDKWSECFS [Phage-41]
- Phage binding ELISA CD28 scFv signal in presence of CD28 [6]: 0.147
- Phage binding ELISA CD28 scFv signal [7]: 0.853

Binder: MDWCPSYLWNECFF [Phage-62]
- Phage binding ELISA CD28 scFv signal [8]: 2
- Phage binding ELISA CD28 scFv signal in presence of CD28 [9]: 0.133

Binder: MDWCPRALWNVCFN [Phage-89]
- Phage binding ELISA CD28 scFv signal [8]: 2.6
- Phage binding ELISA CD28 scFv signal in presence of CD28 [9]: 0.472

Binder: MDWCPIDLWNECFF [Phage-19]
- Phage binding ELISA CD28 scFv signal in presence of CD28 [10]: 0.187
- Phage binding ELISA CD28 scFv signal [11]: 2.52

B2: Peptide-49 (peptide)
peptide: MHWCPVDLWYLCYN
modifications: cysteine pairing not given here; also: biotinylated, site not given here
notes: Synthetic biotinylated peptide loaded on streptavidin biosensors
- IC50 [12]: 170 nM

Binder: MDWCPLYLWNECFN [Phage-24]
- Phage binding ELISA CD28 scFv signal [8]: 2.61
- Phage binding ELISA CD28 scFv signal in presence of CD28 [9]: 0.247

Binder: MDWCPMYLWNECFS [Phage-80]
- Phage binding ELISA CD28 scFv signal in presence of CD28 [13]: 0.411

Binder: MDWCPRDLWVHCFA [Phage-29]
- Phage binding ELISA CD28 scFv signal in presence of CD28 [6]: 0.179
- Phage binding ELISA CD28 scFv signal [7]: 2.55

Binder: MDWCPIHMWADCFA [Phage-69]
- Phage binding ELISA CD28 scFv signal [8]: 2.46
- Phage binding ELISA CD28 scFv signal in presence of CD28 [9]: 0.143

Binder: MDWCPRSHWHVCYN [Phage-75]
- Phage binding ELISA CD28 scFv signal in presence of CD28 [1]: 0.281
- Phage binding ELISA CD28 scFv signal [2]: 1.95

Binder: MDWCPMDLWDYCFN [Phage-51]
- Phage binding ELISA CD28 scFv signal [14]: 1.64
- Phage binding ELISA CD28 scFv signal in presence of CD28 [13]: 0.107

Binder: MHWCPVDLWYLCYN [Phage-37]
- Phage binding ELISA CD28 scFv signal [3]: 2.66
- Phage binding ELISA CD28 scFv signal in presence of CD28 [4]: 0.417

Binder: MDWCPRFMWDECFN [Phage-33]
- Phage binding ELISA CD28 scFv signal [3]: 2.68
- Phage binding ELISA CD28 scFv signal in presence of CD28 [4]: 0.256

Binder: MDWCPRDLWHECFS [Phage-79]
- Phage binding ELISA CD28 scFv signal in presence of CD28 [10]: 0.382
- Phage binding ELISA CD28 scFv signal [11]: 2.65

Binder: MDWCPRFLWSECFN [Phage-95]
- Phage binding ELISA CD28 scFv signal in presence of CD28 [6]: 0.227
- Phage binding ELISA CD28 scFv signal [7]: 2.57

Binder: MDWCPRALWHECFN [Phage-73]
- Phage binding ELISA CD28 scFv signal [14]: 2.69
- Phage binding ELISA CD28 scFv signal in presence of CD28 [13]: 0.401

Binder: MDWCPRFLWDECFN [Phage-83]
- Phage binding ELISA CD28 scFv signal [8]: 2.63
- Phage binding ELISA CD28 scFv signal in presence of CD28 [9]: 0.483

Binder: MDWCPRYLWTECFN [Phage-100]
- Phage binding ELISA CD28 scFv signal in presence of CD28 [6]: 0.549
- Phage binding ELISA CD28 scFv signal [7]: 2.56

Binder: MDWCPRYLWHECFA [Phage-71]
- Phage binding ELISA CD28 scFv signal [14]: 2.63
- Phage binding ELISA CD28 scFv signal in presence of CD28 [13]: 0.429

Binder: MDWCPRHLWAECFF [Phage-86]
- Phage binding ELISA CD28 scFv signal in presence of CD28 [10]: 0.292
- Phage binding ELISA CD28 scFv signal [11]: 2.61

Binder: MDWCPRYLWFECFA [Phage-114]
- Phage binding ELISA CD28 scFv signal in presence of CD28 [10]: 0.21
- Phage binding ELISA CD28 scFv signal [11]: 2.5

Binder: MDWCPRYLWHVCFA [Phage-36]
- Phage binding ELISA CD28 scFv signal in presence of CD28 [1]: 0.226
- Phage binding ELISA CD28 scFv signal [2]: 2.48

Binder: MDWCPMHLWNKCFN [Phage-53]
- Phage binding ELISA CD28 scFv signal [14]: 1.04
- Phage binding ELISA CD28 scFv signal in presence of CD28 [13]: 0.122

Binder: MNWCPKDIWYLCFN [Phage-22]
- Phage binding ELISA CD28 scFv signal [15]: 2.62
- Phage binding ELISA CD28 scFv signal in presence of CD28 [16]: 0.168

Binder: MDWCPMHLWHQCFN [Phage-39]
- Phage binding ELISA CD28 scFv signal [15]: 2.56
- Phage binding ELISA CD28 scFv signal in presence of CD28 [16]: 0.299

Binder: MDWCPVHLWSVCFA [Phage-38]
- Phage binding ELISA CD28 scFv signal in presence of CD28 [1]: 0.302
- Phage binding ELISA CD28 scFv signal [2]: 2.65

Binder: MDWCPINLWDECFS [Phage-52]
- Phage binding ELISA CD28 scFv signal in presence of CD28 [6]: 0.096
- Phage binding ELISA CD28 scFv signal [7]: 1.5

Binder: MDWCPRDSWHLCFA [Phage-59]
- Phage binding ELISA CD28 scFv signal [15]: 2.45
- Phage binding ELISA CD28 scFv signal in presence of CD28 [16]: 0.147

Binder: MDWCPRHRWVDCFY [Phage-57]
- Phage binding ELISA CD28 scFv signal [15]: 0.478
- Phage binding ELISA CD28 scFv signal in presence of CD28 [16]: 0.11

Binder: MDWCPRHLWVHCFN [Phage-42]
- Phage binding ELISA CD28 scFv signal [14]: 2.5
- Phage binding ELISA CD28 scFv signal in presence of CD28 [13]: 0.254

Binder: ITWCPSSMWNRCFI [Phage-70]
- Phage binding ELISA CD28 scFv signal [8]: 0.379
- Phage binding ELISA CD28 scFv signal in presence of CD28 [9]: 0.11

Binder: MDWCPIDLWHLCFY [Phage-90]
- Phage binding ELISA CD28 scFv signal in presence of CD28 [6]: 0.488
- Phage binding ELISA CD28 scFv signal [7]: 2.59

B3: Peptide-50 (peptide)
peptide: MDWCPVHLWSVCFA
modifications: cysteine pairing not given here; also: biotinylated, site not given here
notes: as for B2
- IC50 [12]: 2340 nM

Binder: MHWCPMDQWSNCFN [Phage-56]
- Phage binding ELISA CD28 scFv signal in presence of CD28 [6]: 0.084
- Phage binding ELISA CD28 scFv signal [7]: 0.515
